In patent US20030215899A1, “Reversible oxidation of protein tyrosine phosphatases” (CEPTYR, Inc., priority 2002, published 2003):
“Also recorded” adds a separate entry of the source. Each block holds one molecule with its values, some of them ahead of it.

Columns and labels:
[1] = system: intracellular ROS in Rat-1 cells; assay: ROS-induced DCF fluorescence (microscopy, flow cytometry); format: cell-based; conditions: 20 μM CM-H2DCFDA, growth factor 50 ng/ml, 10 mins
Experimental: The effects of H2O2 and t-BHP on inactivation of PTPs and activation of MAPK signaling pathways were next compared in a cellular context. Intracellular ROS were measured using 2′,7′-dichlorofluorescein diacetate (H2DCFDA) and 5-(and-6)-chloromethyl-2′,7′-dichlorodihydrofluorescein diacetate (CM-H2DCFDA) (all fluorescent ROS indicators from Molecular Probes, Eugene, Oreg.) either by fluorescence microscopy, using a Zeiss Axiovert 405M inverted microscope equipped with a fluorescence attachment and digital camera, or by cell sorting, using a FACSCalibur System ([…].), according to the manufacturer's recommendations. […] Images of ROS-induced DCF fluorescence are shown at magnification 400× (FIG. 3B upper panel). Cells (1×10^5) that underwent the same treatment as above were harvested and resuspended in Hanks' solution, then immediately subjected to flow cytometric analysis to measure ROS-induced DCF fluorescence. The basal peak indicates background fluorescence, whereas the rightward shifted peak indicates ROS-induced DCF fluorescence (FIG. 3B, lower panels). […]
Rat-1 cells were incubated with 20 μM CM-H2DCFDA in the dark for 20 mins, then exposed to peptide growth factors (50 ng/ml) for an additional 10 mins. Images of ROS-induced DCF fluorescence are shown at 50× magnification. […]

70 kDa PTP (SHP-2) = biological target: T1, 70 kDa PTP (SHP-2) (Rattus norvegicus, UniProt P41499); assay: modified in-gel PTP assay, growth factor stimulated Rat-1 cells; format: cell-based
T1 construct: endogenous in cells; host or cells: Rat-1 fibroblasts
T1 sequence (P41499 1-593): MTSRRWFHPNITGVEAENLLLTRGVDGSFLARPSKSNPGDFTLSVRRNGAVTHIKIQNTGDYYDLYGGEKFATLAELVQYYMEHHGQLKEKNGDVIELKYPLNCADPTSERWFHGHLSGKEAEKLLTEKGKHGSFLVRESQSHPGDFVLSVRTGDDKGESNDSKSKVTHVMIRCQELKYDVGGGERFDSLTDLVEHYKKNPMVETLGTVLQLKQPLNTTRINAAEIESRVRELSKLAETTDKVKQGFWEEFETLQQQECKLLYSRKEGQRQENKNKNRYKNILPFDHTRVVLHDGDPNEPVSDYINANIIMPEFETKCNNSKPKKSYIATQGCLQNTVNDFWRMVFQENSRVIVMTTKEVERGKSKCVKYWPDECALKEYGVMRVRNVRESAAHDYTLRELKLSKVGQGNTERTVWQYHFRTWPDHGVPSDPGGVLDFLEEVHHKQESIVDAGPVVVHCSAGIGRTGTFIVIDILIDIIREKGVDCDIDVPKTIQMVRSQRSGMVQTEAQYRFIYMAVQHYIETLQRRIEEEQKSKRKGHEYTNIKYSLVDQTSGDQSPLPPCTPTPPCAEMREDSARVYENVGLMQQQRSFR
Source text: To determine whether ROS stimulated intracellular tyrosine phosphorylation through the oxidation and inhibition of cellular PTPs, a modified in-gel PTP activity assay was devised, as follows: As substrate, poly (4:1) Glu-Tyr (Sigma) was labeled with [γ-^32P]-ATP using the GST-FER fusion PTK, as described previously (Shen et al., 1998 J. Biol. Chem. 273:6474-81). The labeled substrates were used within three weeks to limit the variation of its specific activity from experiment to experiment. The lysis buffer (25 mM CH3COONa, 1% NP-40, 150 mM NaCl, 10% glycerol, pH 5.5) was degassed at 4° C. for overnight, before catalase and superoxide dismutase (both 100 μg/ml), protease inhibitors and 10 mM iodoacetic acid (IAA) were added. Following stimulation, cells were lysed under anaerobic conditions in an argon chamber. Lysates (25 μg) were processed as described herein and an “in-gel” phosphatase assay (Burridge and Nelson, 1995) was conducted using SDS-PAGE gels containing a radioactively-labeled substrate (1.5×10^6 cpm/20 ml gel solution, approximately 2 μM p-Tyr).
Cells were triggered with the appropriate stimulus and harvested under anaerobic conditions in lysis buffer containing IAA. Those PTPs that had not encountered ROS in the cell became irreversibly inactivated by alkylation of their active site Cys with IAA. However, in contrast, any PTPs in which the active site Cys had been oxidized in response to the stimulus were resistant to alkylation. For the “in-gel” phosphatase assay, a 10% SDS-PAGE gel was cast containing a radioactively-labeled substrate. An aliquot of cell lysate was subjected to SDS-PAGE and proteins in the gel were sequentially denatured, then renatured in the presence of reducing reagents. […] The reaction was then terminated by fixing, staining and destaining the gel. Finally the gel was dried and exposed to film. […]
As described above, treatment of Rat-1 cells with H2O2 led to inactivation of multiple PTPs (FIGS. 2-3). […] Lysates of PDGF-stimulated Rat-1 cells were then analyzed using the modified in-gel PTP activity assay described above. […]

MAPK = assay: anti-phospho-MAPK / anti-MAPK immunoblot; format: cell-based, Rat; conditions: peptide growth factors, Rat-1 cells
Experimental: For immunoprecipitation, cells were rinsed with ice-cold PBS, then lysed in ice-cold 20 mM Hepes (pH 7.5), 1% NP-40, 150 mM NaCl, 10% glycerol, 200 μM […] and protease inhibitors (25 μg/ml of aprotinin and leupeptin). […] The anti-pTyr antibody G104 was described previously (Garton et al., 1997 Oncogene 15, 877-885). Anti-PDGFRββ antibody (Ab-X) was a gift from Dr. Daniel DiMaio at Yale University (Irusta and DiMaio, 1998 EMBO J. 17, 6912-6923). Anti-human G-CSF receptor (G-CSFR) antibody was provided by Dr. Toshio Hirano at Osaka University, Japan (Fukada et al., 1996 Immunity 5, 449-460). Lysate (400 μg) was incubated with 5 μg of antibody conjugated to protein A/G-Sepharose (Amersham Pharmacia, Arlington Heights, Ill.) for 2 hours at 4° C. For immunoblotting, aliquots of total lysates (30 μg per sample) or immunoprecipitates were subjected to SDS-PAGE and transferred to nitrocellulose filters, which were incubated with appropriate primary and secondary antibodies and the specific signals were visualized by the ECL detection system (Amersham Pharmacia).

B1: EGF: peptide growth factor (protein, UniProt P01133 23-1207, looked up)
Pro-epidermal growth factor: PQHWSCPEGTLAGNGNSTCVGPAPFLIFSHGNSIFRIDTEGTNYEQLVVDAGVSVIMDFHYNEKRIYWVDLERQLLQRVFLNGSRQERVCNIEKNVSGMAINWINEEVIWSNQQEGIITVTDMKGNNSHILLSALKYPANVAVDPVERFIFWSSEVAGSLYRADLDGVGVKALLETSEKITAVSLDVLDKRLFWIQYNREGSNSLICSCDYDGGSVHISKHPTQHNLFAMSLFGDRIFYSTWKMKTIWIANKHTGKDMVRINLHSSFVPLGELKVVHPLAQPKAEDDTWEPEQKLCKLRKGNCSSTVCGQDLQSHLCMCAEGYALSRDRKYCEDVNECAFWNHGCTLGCKNTPGSYYCTCPVGFVLLPDGKRCHQLVSCPRNVSECSHDCVLTSEGPLCFCPEGSVLERDGKTCSGCSSPDNGGCSQLCVPLSPVSWECDCFPGYDLQLDEKSCAASGPQPFLLFANSQDIRHMHFDGTDYGTLLSQQMGMVYALDHDPVENKIYFAHTALKWIERANMDGSQRERLIEEGVDVPEGLAVDWIGRRFYWTDRGKSLIGRSDLNGKRSKIITKENISQPRGIAVHPMAKRLFWTDTGINPRIESSSLQGLGRLVIASSDLIWPSGITIDFLTDKLYWCDAKQSVIEMANLDGSKRRRLTQNDVGHPFAVAVFEDYVWFSDWAMPSVMRVNKRTGKDRVRLQGSMLKPSSLVVVHPLAKPGADPCLYQNGGCEHICKKRLGTAWCSCREGFMKASDGKTCLALDGHQLLAGGEVDLKNQVTPLDILSKTRVSEDNITESQHMLVAEIMVSDQDDCAPVGCSMYARCISEGEDATCQCLKGFAGDGKLCSDIDECEMGVPVCPPASSKCINTEGGYVCRCSEGYQGDGIHCLDIDECQLGEHSCGENASCTNTEGGYTCMCAGRLSEPGLICPDSTPPPHLREDDHHYSVRNSDSECPLSHDGYCLHDGVCMYIEALDKYACNCVVGYIGERCQYRDLKWWELRHAGHGQQQKVIVVAVCVVVLVMLLLLSLWGAHYYRTQKLLSKNPKNPYEESSRDVRSRRPADTEDGMSSCPQPWFVVIKEHQDLKNGGQPVAGEDGQAADGSMQPTSWRQEPQLCGMGTEQGCWIPVSSDKGSCPQVMERSFHMPSYGTQTLEGGVEKPHSLLSANPLWQQRALDPPHQMELTQ
modifications: Pro-epidermal growth factor
production of intracellular ROS [1]: ROS production was not detected | oxidation and inhibition of SHP-2 (70 kDa PTP (SHP-2); peptide growth factors, lysis with 10 mM IAA): not following exposure of these cells to EGF or FGF; also recorded: not by EGF or FGF | activation of MAPK (MAPK): activated MAPK to a similar extent

oxidation of SHP-2 (70 kDa PTP (SHP-2); Rat-1 cells transfected with Y1009F mutant G-CSFR/PDGFR chimeric receptor): did not induce oxidation of SHP-2
B2: G-CSF: ligand of the G-CSFR/PDGFR chimeric receptors (protein, UniProt P09919 31-207, looked up)
Granulocyte …: TPLGPASSLPQSFLLKCLEQVRKIQGDGAALQEKLVSECATYKLCHPEELVLLGHSLGIPWAPLSSCPSQALQLAGCLSQLHSGLFLYQGLLQALEGISPELGPTLDTLQLDVADFATTIWQQMEELGMAPALQPTQGAMPAFASAFQRRAGGVLVASHLQSFLEVSYRVLRHLAQP
oxidation and inactivation of SHP-2 (70 kDa PTP (SHP-2); Rat-1 cells transfected with WT G-CSFR/PDGFR chimeric receptor): rapid oxidation and inactivation of SHP-2
